The Human Domainome abundance scans (Beltran et al. 2025)

B1: Homeobox protein SIX6, residues 134 to 184; numbered along this chain, O95475 (parent)
chain: CFKERTRHLLREWYLQDPYPNPSKKRELAQATGLTPTQVGNWFKNRRQRDR
B2: Intersectin-2, residues 1129 to 1183; numbered along this chain, Q9NZM3 (parent)
chain: VCQVIAMYDYAANNEDELSFSKGQLINVMNKDDPDWWQGEINGVTGLFPSNYVKM

Variants of: B1
Experiment: abundance fitness (aPCA) (normalised: wild type 0, dead -1); higher = more abundant; growth selection in yeast, the domain comes from the species named
Conditions: Homo sapiens

Abundance fitness of substitutions, site by site:
Q38: I -0.702, Y -0.77, D -0.626, A -0.269, H -0.878, S -0.841, E -0.301, T -0.676, W -0.742, C -0.798, V -0.87, L -0.826, N -0.467, K -0.608, F -0.741, G -0.728, M -0.442, R -0.868, P -0.9
D50: R -0.777, W -0.592, M -0.417, I -0.995, F -0.585, P -0.862, V -0.881, Y -0.878, E -0.26, N -0.693, G -0.607, C -0.73, A -0.383, L -1.1, T -0.153, S -0.312, K -0.474, Q -0.189, H -0.605
F43: N -0.882, E -0.821, R -0.92, L -0.904, G -0.577, D -0.775, T -0.927, A -1.01, I -0.649, M -0.94, S -0.872, K -0.881, W -0.926, H -0.858, Y -1.13, C -0.893
T37: K 0.568, G -0.133, I -0.1, N -0.169, E 0.018, H -0.049, L -0.197, P -0.673, W -0.545, R 0.084, Q 0.026, C -0.109, A -0.005, F -0.28, M -0.249, S -0.043, V -0.076, Y -0.236, D 0.026
R49: M -0.489, W -0.594, D -0.074, S -0.334, H -0.889, C -0.376, F -0.238, T -0.213, A -0.278, Q 0.143, I -0.482, L -0.277, E 0.049, N -0.287, G -0.357, K -0.203, V -0.503
R46: H -0.72, Q 0.11, E 0.062, Y -0.505, A -0.17, T -0.055, S -0.165, F -0.522, N -0.037, W -0.501, L -0.604, D -0.728, M -0.344, I -0.845, V -0.465, K -0.151, C -0.203
N45: E -0.266, R -0.062, W -0.535, T -0.423, C -0.39, D -0.261, K -0.13, L -0.401, M -0.386, Q -0.303, F -0.712, I -0.394, S -0.42, A -0.378, H -0.123, V -0.612, G -0.481
P36: N -0.542, F 0.217, C -0.527, T -0.125, V -0.17, K -0.33, D -0.357, A -0.225, I -0.107, S -0.177, R -0.603, W -0.328, H -0.553, Y 0.372, Q -0.246, G -0.664, L -0.079, E 0.065
T35: W -0.822, C -0.979, M -0.703, N -0.581, P -0.877, R -0.813, G -0.886, Q -0.809, H -0.749, F -0.773, E -0.399, L -0.733, I -0.885, D -0.663, A -0.846, S -0.128, Y -0.953
R51: A -0.353, V -0.545, D -0.25, L -0.431, T -0.529, W -0.832, E -0.094, M -0.499, S -0.646, K -0.133, C -0.691
G40: D -0.503, C -0.279, S 0.152, K 0.335, R 0.127, N -0.579, L -0.615, M -0.533, W -0.467, Q -0.245, V -0.605, P -0.783, T -0.175, H -0.159, F 0.225, E -0.032, A 0.01
W42: E -0.683, Q -0.726, K -0.952, S -0.898, T -0.581, F -0.649, A -1.05, L -0.743, R -0.762, V -0.931, G -0.851, D -0.769, P -0.983, M -0.881
N41: P -1, Q -0.124, K 0.351, T -0.259, H -0.392, V -0.269, M -0.38, A -0.511, W -0.754, G -0.627, S -0.342, R 0.155, C -0.158, E -0.121, L -0.278, Y -0.995, I -0.642
L34: V -0.861, P -0.747, T -0.669, Q -0.731, R -0.719, W -0.548, M -0.044, N -0.826, K -0.722, Y -0.587, S -0.707
K44: E -0.009, V -0.543, D -0.57, A -0.195, T -0.398, F -0.438, L -0.525, C -0.361, P -0.957, Q -0.271, S -0.282, M -0.204, R -0.112, I -0.37, Y -0.604, W -0.634, G -0.68
Q48: F -0.526, A -0.315, C -0.125, T -0.411, D -0.221, R 0.515, G -0.237, H 0.11, L -0.522, S -0.092, K 0.266, I -0.035, Y 0.226, W -0.079, V -0.315, P -0.795, M -0.169, N 0.04
V39: P -0.999, W -0.896, T -0.99, R -0.882, S -0.934, Y -0.646, A -0.9, Q -0.455, L -0.769, K -0.556, D -0.953, M -0.944, I -0.096, G -0.976, E -0.906
R47: L -0.633, M -0.786, I -1.01, T -0.825, G -0.762, Y -0.637, F -0.501, D -0.84, S -0.845, V -0.756, H -0.762, W -0.425, K -0.861, C -0.662, A -0.635, N -0.613

Variants of: B2
Experiment: as above
Conditions: Homo sapiens

Abundance fitness of substitutions, site by site:
C2: A -0.116, I -0.116, G -0.099, T -0.126, S -0.006, Q -0.107, Y 0.022, E -0.3, L -0.223, P -0.108, M -0.13, D -0.041, N 0.147, W -0.122, F 0.023
V1: I 0.077, S -0.21, K 0.089, Y -0.453, W -0.391, L -0.206, R -0.228, F 0.04, C -0.307, M -0.178, T 0.107, D -0.043, P -0.652, N -0.247, A -0.27, E -0.054
Q3: D -0.19, I -0.006, E 0.081, F 0.027, A -0.07, K 0.002, C -0.066, L -0.134
